Data from the domain aggregation screens of Martell et al. (2025).

Test: soluble fraction after stress (log2 fold change); higher = more stays soluble; pooled small domains, quantitative proteomics
Conditions: stress: pH 4
Method in brief: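 Small protein domains from pooled custom libraries were exposed to pH 4, then quantified with high-throughput quantitative proteomics. The fold change in how much of each domain remains soluble is read as aggregation propensity. It is given as log2, with higher values meaning more stayed soluble.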

Sequence	soluble fraction (log2)
HMQYYITKIANYDQVSPNLLVRTAEGQYMVKTNADILDTDVTKLTEEEIRKDWGYLFENGFSELV	-0.681
HMRAAEPTTDAQRDRRRRIVLTAMTMLQERGYDEIQMRDVAQQAGVALGTLYRYFPSKEQLFAHVLVE	-0.68
HMRAAFEHLTIGQTVSGLVKSQARGVSLVEIEGQTVAMRLPQPVAVGDTLRLRFAGHMPQPVFLLDT	-0.0299
HMRADYVGGLDPAGDNFLALRTGPGSGYAMILPMGPGTFVTVLRRNGKWLLVELEDGTRGWAYGSYILG	-1.16
HMRAGALTTLTERERNVFDLVVTGHSNPEIARQLSIADVTVKTHVGHILSKLGVRDRVHLVIWAHRQGLAD	0.0561
HMRAMWENLFFQYKEGFLPEEYYKQGIATGIRLAGPKFVEMNIPMQKEFEDEVHRLLAEHEKSVK	-0.795
HMRASVTYVVQVNGKLRGKLEVAPDIDPEELKKLALEVENVKHSLQGWTVKKVIVIPGKMVSIAAGK	-0.296
HMRAVEGKRLKRLLRTNLIAIERDQILQYPLRKRPLAIVTRAVRATNPDAVIVNDAGDDVFARALDVLLAS	-1.23
HMRDAKSQLQEALQKSGRLPEYELVSVEGPPHAPVFTYRVRIDGAVVGEGQGASKQAAQQAAAQSALKSG	0.22
HMRDDAIQQGREIVERELHRLDLAYTTLTDVLAKLEYEKLDDLYAAVGFGIRSPHSVAAAALQVERDKA	-1.19
HMRDGHEQLQGVLSAIKFHQANFLIGVLDDGTTVKGNMLSPQVGLEYTFRGRRERHPRWGEQFAFMDYRV	-1.82
HMRDIGKNIRYYREKKGYSQEQLAQLLFVTRQTVSNYETSRSRPDVETLVKLAGLLDIDVTDLIYGPR	0.0792
HMRDKSITFSEFVKLLDEGQIQKVTLTGNEILGTQKSGDKFRTYAPPQYEGLGNKLVERSVEVTAKE	0.188
HMRDLVTYVVQVNGKLRGKLEVSPSTDDNSLKTMALELENVQRALEGLSVKKVIVIPGKMVSIAAG	-0.355
HMRDVVVVPDLSGLTQMEALSKLDAESLNIGEINYGVSEMPEGVIFKQDPVYGTELMKGDTVDIFISGR	-0.709
HMRDYKTHLQEVLQSKGEVNIWYKLIDEKGPDHNKKFVMQVGIDSKILGFGEGKSKKEAEQVAARKALDNI	-0.317
HMREGIQLGDPVRVIRDPLFGKIGAVSGLPSELRAIPTESEVRVLEVRFPDGTTTVVPRANIEVIEG	-0.229
HMREIEVNYAAGDSVRVIDGPLAGFIGVVSSVEPDKNKVNVTVSMFGRETPVELELDQVETLD	-0.669
HMREISSDELHSLFSADQRGDLVINETTRLSIEKLYALHTPEEREAKVNELSGVLPSEAHRQLVHFLDYFD	-1.54
HMREITVEELYELEGIRIVGTIPGISAWVAESGRQMVFLVGQKVKGHDLLEVGESRVVLRKGDSVVNVLL	-1.21
HMREKPRETFQRIAEKVGQTLRKGPVRVQQMDLLFSESREQVMEVLRAMAESGEIRIQDDTLHWNGHT	0.193
HMRELPKRPEIRYAAGDRVFHKAFGNGLVKQVAQTAGGARVTVDFGEGKGVKTFAGDAPMIKI	0.326
HMRELSDFEKLLFTTTLERKMINLAMLLTRSNKADSKDLIQDSYLKAIENQVQFNGNNIDAWVITILKNTF	-0.361

Sequence	soluble fraction (log2)
HMRENAARNRNVNLDIGETLRVDAWSPERRARVQYRGAAWDVELAPNAPATVGEFRIVEVRGNVLVVTP	-0.0451
HMREPIPVPSRPIRAGDLVEIPGTNRPAEVTAVKGDRLVLKAGVLSMTVKNDEVRLIEDDERAAM	0.208
HMREQAHEVAGKLGYPVMVKASAGGGGKGIRIVRTEDELDQAFEAAQSETKAAFGDDQMYMEKVI	-0.176
HMRESDQSTVELSLERTIQEALMVNPRTSSVEEFSFEWGTGRVKVSFIVYSVDGEPFTVDSIIE	-1.19
HMREVEAPRDLLAALGERPGALDAWKALSFTHQREYVEAIEDARKPETRERRIANAVKMVAERS	0.111
HMREVPHGEYEVKIEKLELVESKAGDPMVTVWFKVLAGDYKGSMIFMNQVITKGFQIHIMNEFLR	-1.1
HMREYEKAVDYVRRMISSGSLNVGDRLPTERELSLELDISRNSTREAMRMLENMGIIVSRHGSGNYISGN	-0.222
HMRFDADELQKAYDLFDADENTPFKTIKQAYYALARRHHPDKNGDQEYFKVINNAFQLIQEHRRRRDN	-0.412
HMRFGNHHVYRTLMVLSDQKRKGRKQIADAVGIGEGSMRTIIEYLRGLDMIDIRQTGVKITRHGNAFL	0.138
HMRGAARRDRAVGERAVSKDTILDATRALLRKGSALEIRAIDIAEESGLSRQTVFQYYPVIRLIFFELSD	0.155
HMRGETSYANDIIKRLKQANLIVVEGTLYPLLNRLKKDGLLHYEWRESQQGPPRKYYGLTEEGEA	0.0328
HMRGFGEVGQLPSGRYRARYTGPDGGRHSAPITFVARIDAEGWLVDQERMISRGEWEPPARQ	-0.384
HMRGFGYVRRLPSKRYQASYAGPDLQRHVAPTTFTTKADAESWLGAERKVVESGSWRPPAVREAEARLS	0.412
HMRGLIEPLSQRELEVLMLMARGQSNAHIADQLNISENTIKWHGRNIFGKLGVSNRTEAVITSQEMGMLAT	-0.711
HMRGRFGNAAPARNLGDHPQGGAINVKAGRYGPYVSWGKVNATLPKDSDPEKVTLEEAVALIAAKQSGQG	0.218
HMRGVDRPLTLPRHWRRNAGRLVKVTLANGSAVTGRVLDPGEERVTLEVSGERHEVAYADVKKALVQVEF	-0.32
HMRHLSVPNRQVEGALDHIRSQGWLAEGMRVFASEDGSARLIPLGPGAPLEMLEPLAKFDVISHEGKPY	-0.771
HMRHSLAAALTELRRLAALDLGDFFRFEYVSHTDSLGGKQQAYTEGIRVSFGVYLGVNKKDRLNVDPVV	-2.38
HMRHTRQRQAVLDALVRSGQALSPQDLLGQAKSAVPSLNLSTVYRQIKGLQDAGQIVRVELPGQPPRFEM	-0.0347
HMRIAQYRQIENDLLEQINLGYYKKGDLIPTELELSATYHVSRVTVRKATDNLVAKGILQRVAGVGTFVSR	0.0958
HMRIATVTPIEEDQASDRVVAVYNDIKSTKQIDFIPNFWKVIAVNPDLLEQVWGQLKTLMHPEEVG	-0.948
HMRIEDTMDYINKIKEKLKNNGGVITSKEFTRSNIPTIYLTRMVETGELIRIDRGIYINSSG	-0.462
HMRIEYYDDEELDRYIGTPASGYREAAVEEFREILLTLDADDVPGWVRSLQLRGIEFPESLRPELYL	-1.5

Sequence	soluble fraction (log2)
HMRIFDDNMIFPTEAEISAALKRLVMDLPKVGFLQGHGERAVDNVGERAYSMFTHANNFRYALINQGFVT	-0.0562
HMRIHKQLGDRIRNLRLSSGMNQEELAFKSGISAAHLGQIERGLKSPTISTIQKIAKALNVTLPILF	0.311
HMRININNASARQIADALPGVGLKTARDIKDFQTTLSGERYTRLDQLHSIKRVDWDEIFKADLVRV	0.158
HMRISMRDQVYEIIKNRILSREYSLGEPINIVHLSKELGISNTPIREALSQLETERLITINSNQKYHVT	-0.0135
HMRKDEFLQTLRRALNGNVPPRVVEENVRYYDGYISDEVRKGRSEEEVIEEIGDPRLIARTIEDTT	-0.187
HMRKDRKVLMERGRHIFNDLLEKEGIVATNQLMTKLLASHHLRNRDELYLMLANDDISLSSKEIKDLS	0.22
HMRKEDYLPIGSVINMDDRKFRVDSVDFDKDKVSLQDMALADARMPIFWEEPLTVVRELYEQQDE	-0.899
HMRKEPSYASDIITRLKEADLIVVEGTLYPLLTRLKKDGLLSYEWRESTQGPPRKYYALTLDGET	-0.895
HMRKIGDVLRLHAGGLSKRRIAVSLNIGRTAVGDYISRARRAGLGWPLPEDLSEEALERLLFPPP	0.151
HMRKIVEGVLTKKEGKWYLLTDIETYKISDASAEYHKAELNDRASALIPAQNPKVPFASLEKVFN	0.186
HMRKLHFVMSEIYEDHPWIGSKLQDVFLPKDIRVVLVERDSKQFMPNGQTLFELGDRLTLSALHYDPA	-2.22
HMRKLTDRQRQILDLIKTIIAETGAPPTRAEISTALGFKSANAAQEHLQALAQKGMIDLVSGASRGIRLRG	-0.194
HMRKMELTEAAEKLIEEPDVVSAYRNMQQIFQQWREIGPVPREQRDEVWSHFKDLMTQVNRRHQAHFEN	-0.258
HMRKPLDQSWVPDDDAMKILTNSGIEKEFIKNEIPEFILYWSDKGEISDSWNTKFISQIRRQWAKNQ	-0.465
HMRKSAVSSTLTSIEGIGATRAKALLKHFKTVAAVSEADLKELEDAPGMTRPSALRVYEYFHGK	0.0795
HMRKSLGEIVFDRMERAIKSGAYSPDERLPTELDLAAEFEVSRPVIRDALKRLRERGLIYSRQGAGSFVRA	-0.25
HMRKTIQDFLSSNKVDIAKLLTLALEKTKEDLYKNLSYNLTNKELEKLKLLIKKREQGIPFAYLS	0.0954
HMRLADHVVEKLLALVQERGLQPGQKLPAERQLAEVLGVSRTSVREAIQKLVSQGVLSARRGDGTYVQS	0.0683
HMRLANGIGTVYKLSGNRRNPYIVRKTTGWEIDEESGKAKQKYITIGYAPTRAKGLEMLMDYNKNP	0.22
HMRLDHIFSVVERLKGVSLGAGDRLEVQKYEDLLTVYKSKNALSSEEAQTLNDILASLLKMMAKYD	-0.54
HMRLDSELVSARLHRFMGTNRKPDGEIVEKIAAILEGHPIETLDAFLQSLNGRKIKSYGFFPTVLRREIAN	-0.114
HMRLEEVSVPQRLLAAIAEEREVQIGIVDGRGGTRVLRVEPLALEGGRLRARDVESGEEFTVLIHRVLL	-0.809
